Source: PMC11257196

Biological target: human serum albumin (human) (UniProt P02768)
Test: ultrafiltration

Substance: interleukin-1 receptor antagonist in fusion to albumin binding domain (IL-1Ra-ABD) (from UniProt P18510 26-177)
- percent bound: 78%
- percent released from HSA in the first 50 h: 80%
